The results in this text go back to US20260001928A1 (CORTERIA PHARMACEUTICALS, priority 2022, published 2026).

One experiment concerns the target T1, CRF1R receptor (UniProt P34998 24-415, limits assumed).
T1 sequence (looked up): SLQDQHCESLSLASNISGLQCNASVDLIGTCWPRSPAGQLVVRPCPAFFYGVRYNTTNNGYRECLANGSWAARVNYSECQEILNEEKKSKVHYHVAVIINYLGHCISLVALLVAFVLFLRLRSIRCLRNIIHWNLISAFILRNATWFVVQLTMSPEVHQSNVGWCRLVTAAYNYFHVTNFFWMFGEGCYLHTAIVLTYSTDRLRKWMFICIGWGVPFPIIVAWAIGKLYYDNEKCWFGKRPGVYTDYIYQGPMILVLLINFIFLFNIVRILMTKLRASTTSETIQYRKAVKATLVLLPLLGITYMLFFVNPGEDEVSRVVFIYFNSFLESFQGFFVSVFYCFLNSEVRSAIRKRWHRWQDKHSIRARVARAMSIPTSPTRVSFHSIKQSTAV
As to the kind of experiment: cell-based or functional assay.

The target of experiment [1] is human corticotropin-releasing factor 2a (CRF2a receptor) (human), Q13324. Kind of experiment: cell-based or functional assay.

*1 amine or outer side, *2 acyl side, *3 side chain or, on linkers, in order; H or OH if unused. Side-chain parts run from the residue outwards. [ ]: non-standard residue; d: D form. The star is where a group is joined. C18 diacid = O=C(O)CCCCCCCCCCCCCCCCC(=O)*; C16 diacid = O=C(O)CCCCCCCCCCCCCCC(=O)*; γGlu = O=C(O)[C@H](CCC(=O)[*:2])N[*:1]; AEEA = NCCOCCOCC(=O)O; Aib = CC(C)(N)C(=O)O; Butyryl = CCCC(=O)*

Sequence of human corticotropin-releasing factor 2a (CRF2a receptor) (human), Q13324 (Q13324 20-411): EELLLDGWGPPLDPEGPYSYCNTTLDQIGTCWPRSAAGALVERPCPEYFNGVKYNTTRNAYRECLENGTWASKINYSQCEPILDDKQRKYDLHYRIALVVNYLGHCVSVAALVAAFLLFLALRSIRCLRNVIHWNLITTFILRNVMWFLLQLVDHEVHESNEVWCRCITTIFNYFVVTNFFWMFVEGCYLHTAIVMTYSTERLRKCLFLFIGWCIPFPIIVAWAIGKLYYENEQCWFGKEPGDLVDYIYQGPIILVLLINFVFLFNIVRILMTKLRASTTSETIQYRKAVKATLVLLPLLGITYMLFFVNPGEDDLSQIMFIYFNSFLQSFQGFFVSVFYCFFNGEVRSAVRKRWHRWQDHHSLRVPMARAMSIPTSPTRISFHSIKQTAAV

B1: SEQ ID NO 99 (peptide)
peptide: Ac-VLSLD[dV]PIKLK([AEEA-AEEA-γGlu-C18 diacid])KILLEQEKQKKQREQAETN[Aib]QILAQV-NH2
SMILES: CC[C@H](C)[C@H](NC(=O)[C@H](CCC(N)=O)NC(=O)C(C)(C)NC(=O)[C@H](CC(N)=O)NC(=O)[C@@H](NC(=O)[C@H](CCC(=O)O)NC(=O)[C@H](C)NC(=O)[C@H](CCC(N)=O)NC(=O)[C@H](CCC(=O)O)NC(=O)[C@H](CCCNC(=N)N)NC(=O)[C@H](CCC(N)=O)NC(=O)[C@H](CCCCN)NC(=O)[C@H](CCCCN)NC(=O)[C@H](CCC(N)=O)NC(=O)[C@H](CCCCN)NC(=O)[C@H](CCC(=O)O)NC(=O)[C@H](CCC(N)=O)NC(=O)[C@H](CCC(=O)O)NC(=O)[C@H](CC(C)C)NC(=O)[C@H](CC(C)C)NC(=O)[C@@H](NC(=O)[C@H](CCCCN)NC(=O)[C@H](CCCCNC(=O)COCCOCCNC(=O)COCCOCCNC(=O)CC[C@H](NC(=O)CCCCCCCCCCCCCCCCC(=O)O)C(=O)O)NC(=O)[C@H](CC(C)C)NC(=O)[C@H](CCCCN)NC(=O)[C@@H](NC(=O)[C@@H]1CCCN1C(=O)[C@H](NC(=O)[C@H](CC(=O)O)NC(=O)[C@H](CC(C)C)NC(=O)[C@H](CO)NC(=O)[C@H](CC(C)C)NC(=O)[C@@H](NC(C)=O)C(C)C)C(C)C)[C@@H](C)CC)[C@@H](C)CC)[C@@H](C)O)C(=O)N[C@@H](CC(C)C)C(=O)N[C@@H](C)C(=O)N[C@@H](CCC(N)=O)C(=O)N[C@H](C(N)=O)C(C)C
As for B1, the “Emax (% I)” value in the experiment with CRF1R receptor is 0%. In experiment [1], this molecule displayed an EC50 [nM] (cAMP) of 6.07 nM.

B2: SEQ ID NO 79 (peptide)
peptide: Butyryl-VLSLD[dV]PIKLK([γGlu-C16 diacid])KILLEQEKQKKQREQAETN[Aib]QILAQV-NH2
SMILES: CCCC(=O)N[C@H](C(=O)N[C@@H](CC(C)C)C(=O)N[C@@H](CO)C(=O)N[C@@H](CC(C)C)C(=O)N[C@@H](CC(=O)O)C(=O)N[C@@H](C(=O)N1CCC[C@H]1C(=O)N[C@H](C(=O)N[C@@H](CCCCN)C(=O)N[C@@H](CC(C)C)C(=O)N[C@@H](CCCCNC(=O)CC[C@H](NC(=O)CCCCCCCCCCCCCCC(=O)O)C(=O)O)C(=O)N[C@@H](CCCCN)C(=O)N[C@H](C(=O)N[C@@H](CC(C)C)C(=O)N[C@@H](CC(C)C)C(=O)N[C@@H](CCC(=O)O)C(=O)N[C@@H](CCC(N)=O)C(=O)N[C@@H](CCC(=O)O)C(=O)N[C@@H](CCCCN)C(=O)N[C@@H](CCC(N)=O)C(=O)N[C@@H](CCCCN)C(=O)N[C@@H](CCCCN)C(=O)N[C@@H](CCC(N)=O)C(=O)N[C@@H](CCCNC(=N)N)C(=O)N[C@@H](CCC(=O)O)C(=O)N[C@@H](CCC(N)=O)C(=O)N[C@@H](C)C(=O)N[C@@H](CCC(=O)O)C(=O)N[C@H](C(=O)N[C@@H](CC(N)=O)C(=O)NC(C)(C)C(=O)N[C@@H](CCC(N)=O)C(=O)N[C@H](C(=O)N[C@@H](CC(C)C)C(=O)N[C@@H](C)C(=O)N[C@@H](CCC(N)=O)C(=O)N[C@H](C(N)=O)C(C)C)[C@@H](C)CC)[C@@H](C)O)[C@@H](C)CC)[C@@H](C)CC)C(C)C)C(C)C
B2: in the experiment with CRF1R receptor, the “Emax (% I)” value is 10%. Also, the EC50 [nM] (cAMP) in experiment [1] was determined as 0.38 nM.
